From the supplement of paper PMC10724198
± gives the standard deviation of the averaged measurements.

Legend:
[1] = tested on: Saccharomyces cerevisiae; experiment: protein stability index of tFT-peptide fusion (C-terminal peptide) (PSI (0-1 scale)); higher = more stable (slower turnover)
Method: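 MPS profiling in S. cerevisiae of the tFT-X12 degron library: putative degron peptides plus stable controls, 12 aa, fused to the C-terminus of a sfGFP-mCherry timer. Cells are FACS-sorted into 8 mCherry/sfGFP bins and deep-sequenced. PSI runs from 0 (unstable) to 1 (stable). Backgrounds are wild type, das1Δ and doa10Δ at 30 °C, and wild type, das1Δ, cdc34-1 and cdc53-1 at 37 °C; 2-3 technical replicates each.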

[2] = tested on: Saccharomyces cerevisiae; experiment: as above; details: genetic background: wild type; temperature: 30 C
[3] = genetic background: cdc34-1, temperature: 37 C
[4] = genetic background: cdc53-1, temperature: 37 C
[5] = genetic background: das1 deletion, temperature: 30 C
[6] = genetic background: das1 deletion, temperature: 37 C
[7] = genetic background: doa10 deletion, temperature: 30 C
[8] = genetic background: wild type, temperature: 30 C
[9] = genetic background: wild type, temperature: 37 C
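Note: PSI is a weighted mean of sequencing reads over stability bins, variants kept only with over 10 reads, mCherry proximal and sfGFP distal, peptide attached via GGGS linker.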

Row | Sequence | protein stability index [1, 3] | protein stability index [1, 4] | protein stability index [1, 5] | protein stability index [1, 6] | protein stability index [1, 7] | protein stability index [1, 8] | protein stability index [1, 9] | protein stability index [2]
1 | KYKANLGNLKVH | 0.596 ± 0.067 | 0.7161 ± 0.0013 | 0.632 ± 0.019 | 0.725 ± 0.029 | 0.0824 ± 0.011 | 0.0914 ± 0.05 | 0.101 ± 0.0031 | 0.135 ± 0.056
2 | LAPPFPVVLTPA | 0.294 ± 0.043 | 0.32381 ± 2.9e-05 | 0.263 ± 0.036 | 0.4137 ± 0.00012 | 0.219 ± 0.0087 | 0.267 ± 0.035 | 0.3816 ± 0.0013 | 0.334 ± 0.015
3 | LCGGEWVVWVKG | 0.645 ± 0.023 | 0.7321 ± 0.0055 | 0.557 ± 0.02 | 0.721 ± 0.012 | 0.211 ± 0.0085 | 0.234 ± 0.026 | 0.477 ± 0.029 | 0.342 ± 0.0052
4 | LCIFFWFSSFFL | 0.471 ± 0.028 | 0.561 ± 0.018 | 0.4 ± 0.021 | 0.5337 ± 0.0052 | 0.401 ± 0.0067 | 0.389 ± 0.019 | 0.505 ± 0.012 | 0.493 ± 0.015
5 | LCLICLFLLKVL | 0.477 ± 0.049 | 0.548 ± 0.048 | 0.395 ± 0.03 | 0.586 ± 0.0076 | 0.18 ± 0.018 | 0.201 ± 0.032 | 0.299 ± 0.017 | 0.337 ± 0.022
6 | LCRCPVGVFVLL | 0.516 ± 0.036 | 0.549 ± 0.031 | 0.39 ± 0.038 | 0.5395 ± 0.0021 | 0.356 ± 0.033 | 0.303 ± 0.035 | 0.469 ± 0.017 | 0.362 ± 0.012
7 | LCVVFCIRTYRV | 0.249 ± 0.027 | 0.437 ± 0.079 | 0.259 ± 0.038 | 0.476 ± 0.044 | 0.247 ± 0.031 | 0.251 ± 0.042 | 0.471 ± 0.027 | 0.335 ± 0.053
8 | LCYVLLWLLCRS | 0.45 ± 0.017 | 0.516 ± 0.049 | 0.349 ± 0.024 | 0.512 ± 0.0074 | 0.33 ± 0.0069 | 0.353 ± 0.026 | 0.501 ± 0.033 | 0.448 ± 0.027
9 | LDLPFESGIACF | 0.32 ± 0.035 | 0.297 ± 0.0081 | 0.259 ± 0.032 | 0.436 ± 0.027 | 0.209 ± 0.02 | 0.263 ± 0.029 | 0.397 ± 0.015 | 0.361 ± 0.0063
10 | LEGLLIRVYITF | 0.105 ± 0.034 | 0.234 ± 0.021 | 0.178 ± 0.019 | 0.3361 ± 0.00094 | 0.151 ± 0.017 | 0.173 ± 0.02 | 0.305 ± 0.0093 | 0.288 ± 0.014
11 | LFFFLFSLLIFF | 0.248 ± 0.019 | 0.25 ± 0.0039 | 0.349 ± 0.044 | 0.362 ± 0.0094 | 0.377 ± 0.014 | 0.259 ± 0.047 | 0.352 ± 0.011 | 0.301 ± 0.036
12 | LFFFRLFVFWVF | 0.195 ± 0.034 | 0.173 ± 0.037 | 0.238 ± 0.021 | 0.369 ± 0.01 | 0.173 ± 0.014 | 0.157 ± 0.023 | 0.251 ± 0.0066 | 0.203 ± 0.0063
13 | LFFFSFSFLFFL | 0.291 ± 0.07 | 0.29 ± 0.0037 | 0.302 ± 0.015 | 0.411 ± 0.00085 | 0.317 ± 0.024 | 0.245 ± 0.014 | 0.3202 ± 0.0027 | 0.278 ± 0.035
14 | LFFFVFFVLFSV | 0.2271 ± 0.00037 | 0.204 ± 0.0057 | 0.218 ± 0.013 | 0.3319 ± 0.0017 | 0.304 ± 0.013 | 0.211 ± 0.023 | 0.303 ± 0.016 | 0.259 ± 0.075
15 | LFFRLLCAFLFL | 0.532 ± 0.041 | 0.452 ± 0.012 | 0.499 ± 0.047 | 0.584 ± 0.017 | 0.578 ± 0.04 | 0.501 ± 0.012 | 0.5353 ± 0.0031 | 0.529 ± 0.046
